According to patent US20040033534A1 (WISCONSIN ALUMNI RESEARCH FOUNDATION, published 2004):
Positions of bridges follow the written chain, without caps; N, C: chain ends. No end group written: not given here.

Experiments:
[1] = molecular target: T1, VanR~P (phosphorylated VanR) (Enterococcus faecium, UniProt Q06239 1-231, phosphorylated with acetyl phosphate; Asp-55 is named as the residue that accepts the phosphoryl group); experiment: not stated (comparison of VanR and VanR˜P; reference is unphosphorylated VanR)
[2] = molecular target: T1, VanR~P (phosphorylated VanR); experiment: cell-based or functional assay
[3] = molecular target: PhoB (complete PhoB sequence)

T1 sequence (Q06239 whole entry): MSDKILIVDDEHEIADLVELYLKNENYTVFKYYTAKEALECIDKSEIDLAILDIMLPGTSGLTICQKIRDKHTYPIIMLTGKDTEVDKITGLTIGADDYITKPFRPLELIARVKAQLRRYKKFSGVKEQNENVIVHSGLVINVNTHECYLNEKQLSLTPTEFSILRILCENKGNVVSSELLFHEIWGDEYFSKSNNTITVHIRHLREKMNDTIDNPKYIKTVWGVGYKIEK

Binder: SLCHDSVIGWEC (disulfide 3-12 (inferred), also called Peptide E12) [dodecamer peptide SEQ ID NO. 1]
- fold difference between binding to VanR and binding to VanR˜P [1]: > 100 fold

Binder: SLAHDSIIGYLS [peptide SEQ ID NO. 2]
- IC50 for inhibiting VanR˜P binding to [32P] PVanH (gel shift), relative to SEQ ID NO. 1 [2]: 10 fold

B1: GST-VanSc (Arg-93-TAA-283 stop) (protein)
chain: RVMLSKFAKYFDEINTGIDVLIQNEDKQIELSAEMDVMEQKLNTLKRTLEKREQDAKLAEQRKNDVVMYLAHDIKTPLTSIIGYLSLLDEAPDMPVDQKAKYVHITLDKAYRLEQLIDEFFEITRYNLQTITLTKTHIDLYYMLVQMTDEFYPQLSAHGKQAVIHAPEDLTVSGDPDKLARVFNNILKNAA
- phosphoryl transfer from VanS˜P to PhoB [3]: VanS˜P was incubated with PhoB, and phosphoryl transfer was assessed
